Article PMC2668795

Target: syntaxin1 (mouse (endogenous in brain synaptosomes)) (UniProt O35526)
Assay: co-IP; synaptosomes from wt, ASMko (7 months; also 1 month) or wt+Se mice, equal protein; 150 mM NaCl, 0.5% sodium deoxycholate, 1% NP40; syntaxin1 monoclonal antibody 4 h at 4°C, protein G sepharose beads overnight at 4°C; Western blot for syntaxin1, Munc18, SNAP25 and Vamp2

UniProt O35526, sequence (O35526 whole entry): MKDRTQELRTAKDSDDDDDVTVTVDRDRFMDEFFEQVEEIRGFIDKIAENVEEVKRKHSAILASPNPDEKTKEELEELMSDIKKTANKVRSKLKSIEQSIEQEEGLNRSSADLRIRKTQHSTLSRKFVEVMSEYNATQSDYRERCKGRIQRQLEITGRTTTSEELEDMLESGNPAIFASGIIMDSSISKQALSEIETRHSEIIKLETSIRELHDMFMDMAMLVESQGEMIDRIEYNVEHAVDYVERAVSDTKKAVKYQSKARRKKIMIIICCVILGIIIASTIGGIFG

“Munc18 (from UniProt O08599 1-594) (natural protein)” gave a fold change of Munc18 co-precipitated with syntaxin1, ASMko versus wt synaptosomes of 1.9 fold.
